Measured values: publication PMC4300183, “Cloning and Characterization of a Weissella confusa Dextransucrase and Its Application in High Fibre Baking” (PLoS ONE, 2015)

Substrate: OC[C@H]1O[C@@](CO)(O[C@H]2O[C@H](CO)[C@@H](O)[C@H](O)[C@H]2O)[C@@H](O)[C@@H]1O
Test: purified protein
Assay type: biochemical, Weissella confusa
Details: 20 mM Na-acetate pH 5.4, 2 mM CaCl2, 35 °C, sucrose 3-146 mM, labelled compound

B1: WcE392-rDSR (Wc392-rDSR; recombinant WcE392-DSR dextransucrase) (Weissella confusa) (protein)
chain: DQLATQPAESAEVTQHETPTDSQAPDSVTSLSDTKETVQSSAASVDSSHVATSSASETTSSASETSTKTSSAASSVASSATMLSATSSASSSVDATITDGYHDEGGNWVYYRDGKKLTGRQLIDTFNVYFDEDGHQVKGDWRETDGKRAYYDGQEGRALTETQVVDGAVRGFDADGYEITNGFGQTSNQDTYYFDNDGNHVTGIQVIDGKTYNFDDQGRMLKGIATEVNGTMMYFDDQTGVATPTSDPKFNPELEPVPNQNAQHNAAHGTTPEDFDNMAGYLTADTWYRPNDILDNGETWRESTPTEYRPLIETWWPTKQTQADYVNYMNDALQVSTKTVSAADSEATLTAAADAIQAAIERQITVKQSTDWLRELMAAFVVTQPQWNKSSEDENDDHLQGGALSFENNPDTDANSDYRLMNRTPTNQTGERLYHIDDSLGGYELLLANDVDNSNPQVQAEQLNWLYYLMNFGSITANDPDANFDAIRVDAVDNVDADLLQLAAQYFRDAYGMATNDATSNQHLSILEDWSHNDPAYMNEHGNDQLTMDDYMHTQLIWSLTKSDAQRGKMDRFLDFYLTNRANDNTENEAQPSYSFVRAHDSEVQTVIAEIVTKLHPEAGNGLMPTQAQMDEAFKIYNADQKKAVKEYTHYNMPSAYAMLLTNKDVIPRVYYGDLYTDDGQYMATKSPYFDAIDAMLKARTKYVAGGQTMAVDKNDVLTSVRFGKGAMTASDAGTAETRTEGVGLIISNNHDLKMADSDQVVLHMGIAHANQAFRAVVMTTATGLAIYNDDNAPIRYTDANGDLIFTNADVYGVLNPQVSGFLAMWVPVGASATQDARTAASTEATTDGSAYHSNAALDSQVIFEGFSNFQAMPTTHDEYTNVVLAKHTDLLTDWSVTSVQLAPQYRSSTDGTFLDSIIQNGYAFTDRYDLGFGTPTKYGDDNDLRDVIKSLHANGIQVMADFVPDQLYALPGKELVQVTRTNNMGEPDKNSEIQHLMYVTSTRGGGEYQKQYGGEFLAKLRELYPDLFTTDQISTGKPIDDSVKIKEWSAKYLNGTAIQGRGAGYVLRDAGNNSYYRVTANTGNTNLPNQMLGKPVLTGFQKLADGYHFETLSGSAAKDAFIKDDNGELYYFDNNGVMATGEQKVRGGQYFFLPNGIALTDAFIETEDGHMRYYDKNGQLVVNQYVTDHQANAFRVDADGNVIRSQALTVDGNEQYFGSNGVQAKAQMVRDENGQAHYYAAGNGNMIKNQFILDTDGHWLYADQNGNLARGMTTLNQGTLYFDDQNHQVKDDFVYDADGVHYFNGTNGAEVKNDYAYHNGKWYYFDENGRMVTGLQTINGELRYFGADGAQLKGGQATNQKTNQTYVFDETNGSGKLVTI
notes: secreted by Lactococcus lactis NZ9800 (pNZ8037), Ni-NTA purified; predicted mature 1381 residues, 152 kDa (~160 kDa on SDS-PAGE); precursor printed as 1432 residues, but 4272 bp ORF implies 1423
Question: What does the source list for B1?
Answer: Km: 14.7 ± 2.3 mM; Vmax: 8.2 µmol/min/mg; kcat: 23.2 ± 1.1 s⁻¹; kcat/Km: 1600 ± 300 M⁻¹ s⁻¹
